Laboratory results as given in publication PMC13132431, “Epigenetic gene regulation is controlled by distinct regulatory complexes utilizing specialized paralogs of TELOMERE REPEAT BINDING FACTORS”.

Key:
HIS-TRB1 = target: T1, HIS-TRB1 (Arabidopsis thaliana, UniProt Q8VWK4 1-300); experiment: MST; MST: 50 mM NaPO4, 300 mM NaCl, pH 7.5, 0.05% Tween 20, 1.25 mg/ml BSA; 20 nM Cy3-dsDNA, 260 pM-8.5 uM protein; 10 min at RT; details: protein: recombinant; tags: 6xHis (pET-28b); label: 5'-Cy3 on both strands; blunt
T1 sequence: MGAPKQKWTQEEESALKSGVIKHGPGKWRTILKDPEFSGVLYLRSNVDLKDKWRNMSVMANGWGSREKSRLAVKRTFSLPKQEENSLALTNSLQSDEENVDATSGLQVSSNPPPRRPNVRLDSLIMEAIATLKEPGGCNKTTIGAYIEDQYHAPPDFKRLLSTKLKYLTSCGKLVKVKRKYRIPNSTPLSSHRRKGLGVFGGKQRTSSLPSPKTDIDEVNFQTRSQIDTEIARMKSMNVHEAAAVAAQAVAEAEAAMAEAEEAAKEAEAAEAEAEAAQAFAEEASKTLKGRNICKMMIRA

HIS-TRB3 = target: T2, HIS-TRB3 (Arabidopsis thaliana, UniProt Q9M2X3 1-295); experiment: as above; details: protein: recombinant; tags: 6xHis (pET-28b); label: 5'-Cy3 on both strands; blunt
T2 sequence: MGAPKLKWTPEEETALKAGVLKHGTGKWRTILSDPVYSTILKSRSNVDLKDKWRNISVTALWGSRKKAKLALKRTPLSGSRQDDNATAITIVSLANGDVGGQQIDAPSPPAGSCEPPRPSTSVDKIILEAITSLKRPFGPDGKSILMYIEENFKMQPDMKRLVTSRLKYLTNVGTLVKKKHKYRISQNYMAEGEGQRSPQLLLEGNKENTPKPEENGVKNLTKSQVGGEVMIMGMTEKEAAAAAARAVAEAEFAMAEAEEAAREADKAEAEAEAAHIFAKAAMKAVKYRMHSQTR

B1: (C)GACCTAA (dsDNA)
DNA 1: CATCATGGCGACCTAAGGCTGGTACTAG
DNA 2: CTAGTACCAGCCTTAGGTCGCCATGATG
B1 was tested, and the binding result (HIS-TRB1) was “no binding” and the Kd (HIS-TRB3) was 652 ± 64 nM.

B2: R4 telo-box (4x repeat) (dsDNA)
DNA 1: GGTTTAGGGTTTAGGGTTTAGGGTTTAG
DNA 2: CTAAACCCTAAACCCTAAACCCTAAACC
B2 was tested, and the Kd (HIS-TRB1) was 567 ± 180 nM and the Kd (HIS-TRB3) was 531 ± 30 nM.

B3: proSEP3-telo-box (dsDNA)
DNA 1: TTTAAATGTTAGGGTTTTTTGTAGGATT
DNA 2: AATCCTACAAAAAACCCTAACATTTAAA
For B3, the binding result (HIS-TRB1) was “no binding” and the Kd (HIS-TRB3) was 640 ± 19 nM.

B4: (C)AACCTAA (dsDNA)
DNA 1: CATCATGGCAACCTAAGGCTGGTACTAG
DNA 2: CTAGTACCAGCCTTAGGTTGCCATGATG
Binder B4 has a Kd (HIS-TRB1) of 4900 ± 1000 nM and a Kd (HIS-TRB3) of 298 ± 48 nM.
